According to patent US20080009025:

What was measured:
[1] = molecular target: PDKtide (39 amino acid polypeptide, T308tide fused to PIFtide)
T308tide = molecular target: T1, T308tide
T1 chain: KTFCGTPEYLAPEV

D978A-PIFtide = molecular target: T2, D978A-PIFtide
T2 chain: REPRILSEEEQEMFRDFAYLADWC

[2] = molecular target: GST-PKBα (full length), P31749
[3] = molecular target: GST-PKBα[F472A] (full length), P31749
[4] = molecular target: GST-PKBα[S473D] (full length), P31749
[5] = molecular target: GST-SGK1 (lacking the N-terminal 60 amino acids), O00141
Sequence of GST-SGK1 (lacking the N-terminal 60 amino acids), O00141 (O00141 whole entry, looked up): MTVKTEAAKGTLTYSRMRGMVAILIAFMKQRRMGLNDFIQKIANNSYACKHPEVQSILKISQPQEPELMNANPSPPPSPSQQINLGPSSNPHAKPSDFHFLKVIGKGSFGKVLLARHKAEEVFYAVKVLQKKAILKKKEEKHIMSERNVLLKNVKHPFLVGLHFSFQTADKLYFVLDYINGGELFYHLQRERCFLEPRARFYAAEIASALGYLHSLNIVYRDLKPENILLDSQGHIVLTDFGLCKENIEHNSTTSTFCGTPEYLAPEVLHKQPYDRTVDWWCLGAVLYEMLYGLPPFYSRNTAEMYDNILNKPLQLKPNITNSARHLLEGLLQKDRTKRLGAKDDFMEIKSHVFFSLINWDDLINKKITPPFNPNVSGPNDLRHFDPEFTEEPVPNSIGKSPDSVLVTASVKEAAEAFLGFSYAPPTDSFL

[6] = molecular target: GST-SGK1[T422D] (lacking the N-terminal 60 amino acids), O00141
Sequence of GST-SGK1[T422D] (lacking the N-terminal 60 amino acids), O00141 (O00141 whole entry, looked up, stated change not applied): as the sequence (O00141 whole entry, looked up) above

[7] = molecular target: GST-ΔPH-PKBα[S473D], P31749
Sequence of GST-ΔPH-PKBα[S473D], P31749 (P31749 whole entry S473D, looked up): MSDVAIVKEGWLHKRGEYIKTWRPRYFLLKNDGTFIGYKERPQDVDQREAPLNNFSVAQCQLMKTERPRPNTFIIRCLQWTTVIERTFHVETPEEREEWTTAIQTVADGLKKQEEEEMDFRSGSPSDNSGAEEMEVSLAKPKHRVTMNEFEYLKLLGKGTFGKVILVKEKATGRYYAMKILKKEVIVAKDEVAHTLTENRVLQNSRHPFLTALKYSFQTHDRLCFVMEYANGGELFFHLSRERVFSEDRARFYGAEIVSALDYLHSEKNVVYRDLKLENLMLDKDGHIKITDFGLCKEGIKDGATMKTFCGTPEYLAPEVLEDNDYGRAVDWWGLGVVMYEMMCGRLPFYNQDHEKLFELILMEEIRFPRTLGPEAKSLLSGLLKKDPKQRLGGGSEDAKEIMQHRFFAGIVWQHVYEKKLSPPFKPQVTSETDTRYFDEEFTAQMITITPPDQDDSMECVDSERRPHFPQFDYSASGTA

[8] = molecular target: His-412E-p70 S6K-T2, P23443
Sequence of His-412E-p70 S6K-T2, P23443 (P23443 whole entry, looked up): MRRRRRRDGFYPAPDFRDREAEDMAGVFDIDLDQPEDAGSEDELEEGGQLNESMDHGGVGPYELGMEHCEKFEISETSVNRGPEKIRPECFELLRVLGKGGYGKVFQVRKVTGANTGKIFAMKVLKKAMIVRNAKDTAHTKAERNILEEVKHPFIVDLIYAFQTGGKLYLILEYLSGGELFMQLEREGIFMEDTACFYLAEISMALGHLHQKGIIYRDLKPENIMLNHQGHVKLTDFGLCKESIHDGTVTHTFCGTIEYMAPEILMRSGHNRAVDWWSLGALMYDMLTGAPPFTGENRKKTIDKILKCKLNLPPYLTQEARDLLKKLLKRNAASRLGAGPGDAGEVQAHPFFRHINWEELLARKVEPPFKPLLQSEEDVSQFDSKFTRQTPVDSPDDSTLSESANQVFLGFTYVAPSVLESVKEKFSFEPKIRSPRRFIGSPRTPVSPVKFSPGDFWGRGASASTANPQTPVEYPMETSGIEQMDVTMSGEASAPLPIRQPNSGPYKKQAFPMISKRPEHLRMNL

[9] = molecular target: His-p70 S6K-T2 (p70 S6K with N-terminal His tag lacking the carboxy terminal 104 residues), P23443
Sequence of His-p70 S6K-T2 (p70 S6K with N-terminal His tag lacking the carboxy terminal 104 residues), P23443 (P23443 whole entry, looked up): as above

[10] = substrate: PIF peptide with Asp978 changed to phosphoserine
[11] = molecular target: T3, PIFtide (24 residue synthetic peptide encompassing the PDK1 binding site on PIF)
T3 chain: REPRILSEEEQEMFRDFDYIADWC

Sequence of GST-ΔPH-PKBα, P31749 (P31749 whole entry, looked up, stated change not applied): as the sequence (P31749 whole entry S473D, looked up) above, with D473S counted along it
Sequence of GST-PKBα (full length), P31749 (P31749 whole entry, looked up): as the sequence (P31749 whole entry S473D, looked up) above, with D473S counted along it
Sequence of GST-PKBα[S473D] (full length), P31749 (P31749 whole entry S473D, looked up): as the sequence (P31749 whole entry S473D, looked up) above
Sequence of GST-PKBα[F472A] (full length), P31749 (P31749 whole entry F472A, looked up): as the sequence (P31749 whole entry S473D, looked up) above, with F472A, D473S counted along it

B1: His-PDK1 (PDK1 residues 52-556 with an N-terminal hexahistidine tag) (protein)
chain: HHHHHHDGTAAEPRPGAGSLQHAQPPPQPRKKRPEDFKFGKILGEGSFSTVVLARELATSREYAIKILEKRHIIKENKVPYVTRERDVMSRLDHPFFVKLYFTFQDDEKLYFGLSYAKNGELLKYIRKIGSFDETCTRFYTAEIVSALEYLHGKGIIHRDLKPENILLNEDMHIQITDFGTAKVLSPESKQARANSFVGTAQYVSPELLTEKSACKSSDLWALGCIIYQLVAGLPPFRAGNEYLIFQKIIKLEYDFPEKFFPKARDLVEKLLVLDATKRLGCEEMEGYGPLKAHPFFESVTWENLHQQTPPKLTAYLPAMSEDDEDCYGNYDNLLSQFGCMQVSSSSSSHSLSASDTGLPQRSGSNIEQYIHDLDSNSFELDLQFSEDEKRLLLEKQAGGNPWHQFVENNLILKMGPVDKRKGLFARRRQLLLTEGPHLYYVDPVNKVLKGEIPWSQELRPEAKNFKTFFVHTPNRTYYLMDPSGNAHKWCRKIQEVWRQRYQSHPDAAVQ
B1 was tested, and the “rate of phosphorylation at 100 µM, against T308tide” value [1] was “PDKtide was phosphorylated at a rate over 100-fold greater than that using T308tide” and the “Km of PDK1 for the peptide substrate” value (T308tide) was “compared to >10 mM for T308tide”.

B2: GST-PDK1 wild type (full length PDK1, residues 1-556, N-terminal GST) (protein)
chain: MARTTSQLYDAVPIQSSVVLCSCPSPSMVRTQTESSTPPGIPGGSRQGPAMDGTAAEPRPGAGSLQHAQPPPQPRKKRPEDFKFGKILGEGSFSTVVLARELATSREYAIKILEKRHIIKENKVPYVTRERDVMSRLDHPFFVKLYFTFQDDEKLYFGLSYAKNGELLKYIRKIGSFDETCTRFYTAEIVSALEYLHGKGIIHRDLKPENILLNEDMHIQITDFGTAKVLSPESKQARANSFVGTAQYVSPELLTEKSACKSSDLWALGCIIYQLVAGLPPFRAGNEYLIFQKIIKLEYDFPEKFFPKARDLVEKLLVLDATKRLGCEEMEGYGPLKAHPFFESVTWENLHQQTPPKLTAYLPAMSEDDEDCYGNYDNLLSQFGCMQVSSSSSSHSLSASDTGLPQRSGSNIEQYIHDLDSNSFELDLQFSEDEKRLLLEKQAGGNPWHQFVENNLILKMGPVDKRKGLFARRRQLLLTEGPHLYYVDPVNKVLKGEIPWSQELRPEAKNFKTFFVHTPNRTYYLMDPSGNAHKWCRKIQEVWRQRYQSHPDAAVQ
With B2 the “phosphorylation of GST-p70 S6K-T2 by GST-PDK1 in vitro (32P autoradiography), 4 µM peptide” value (D978A-PIFtide) was “poorly inhibited the phosphorylation of GST-p70 S6K-T2 by PDK1 slightly”, the “phosphorylation of GST-p70 S6K-T2 by GST-PDK1 in vitro (32P autoradiography), 1.5 µM” value (GST-D978A-PIF) was “poorly inhibited the phosphorylation of GST-p70 S6K-T2 by PDK1 slightly” and the relative phosphorylation of the substrate by PDK1 in vitro (PKB[S473D] = 100), +PIFtide [2] was 19.3 relative. The relative phosphorylation of the substrate by PDK1 in vitro (PKB[S473D] = 100), no PIFtide [2] was 28 relative, the “rate of phosphorylation by PDK1 in vitro, against the wild type enzyme” value [3] was “PKB[F472A] was phosphorylated at a similar rate to the wild type PKB” and the relative phosphorylation of the substrate by PDK1 in vitro (PKB[S473D] = 100), +PIFtide [4] was 85.4 relative. It also gave a relative phosphorylation of the substrate by PDK1 in vitro (this value taken as 100; 2.6 mol/mol PDK1/min), no PIFtide [4] of 100 relative, a relative phosphorylation of the substrate by PDK1 in vitro (PKB[S473D] = 100), +PIFtide [5] of 3.8 relative and a relative phosphorylation of the substrate by PDK1 in vitro (PKB[S473D] = 100), no PIFtide [5] of 8 relative. For the same protein, the relative phosphorylation of the substrate by PDK1 in vitro (PKB[S473D] = 100), +PIFtide [6] was 9.6 relative, the relative phosphorylation of the substrate by PDK1 in vitro (PKB[S473D] = 100), no PIFtide [6] was 71 relative and the relative phosphorylation of the substrate by PDK1 in vitro (PKB[S473D] = 100), +PIFtide (GST-ΔPH-PKBα, P31749) was 0.25 relative. For the same protein, the relative phosphorylation of the substrate by PDK1 in vitro (PKB[S473D] = 100), no PIFtide (GST-ΔPH-PKBα, P31749) was 0.4 relative, the relative phosphorylation of the substrate by PDK1 in vitro (PKB[S473D] = 100), +PIFtide [7] was 0.2 relative and the relative phosphorylation of the substrate by PDK1 in vitro (PKB[S473D] = 100), no PIFtide [7] was 0.9 relative. For the same protein, the relative phosphorylation of the substrate by PDK1 in vitro (PKB[S473D] = 100), +PIFtide [8] was 7.4 relative, the relative phosphorylation of the substrate by PDK1 in vitro (PKB[S473D] = 100), no PIFtide [8] was 54 relative and the relative phosphorylation of the substrate by PDK1 in vitro (32P, SDS-PAGE, PhosphoImager; PKB[S473D] with PtdIns(3,4,5)P3 = 100), no PIFtide [9] was 10.4 relative. The relative phosphorylation of the substrate by PDK1 in vitro (PKB[S473D] = 100), +PIFtide [9] was 0.58 relative, the “phosphorylation of GST-p70 S6K-T2 by GST-PDK1 in vitro (32P autoradiography), 4 µM peptide” value [10] was “prevented PDK1 from phosphorylating GST-p70 S6K-T2” and the “phosphorylation of GST-p70 S6K-T2 (wt and 252A) at Thr412 by wt-GST-PDK1, T412-P immunoblot” value [11] was “band in every lane without PIF peptide, no band in the neighbouring lane with PIF peptide (4 µM), for PDK1 from 293 cells and from E. coli”. For the same protein, the “phosphorylation of GST-p70 S6K-T2 at Thr412 by GST-PDK1 (T412-P immunoblot), 4 µM peptide” value [11] was “The 24 residue PIF peptide prevented PDK1 from phosphorylating the p70 S6K at Thr412”.

B3: GST-PDK1[L155E] (protein)
chain: MARTTSQLYDAVPIQSSVVLCSCPSPSMVRTQTESSTPPGIPGGSRQGPAMDGTAAEPRPGAGSLQHAQPPPQPRKKRPEDFKFGKILGEGSFSTVVLARELATSREYAIKILEKRHIIKENKVPYVTRERDVMSRLDHPFFVKLYFTFQDDEKEYFGLSYAKNGELLKYIRKIGSFDETCTRFYTAEIVSALEYLHGKGIIHRDLKPENILLNEDMHIQITDFGTAKVLSPESKQARANSFVGTAQYVSPELLTEKSACKSSDLWALGCIIYQLVAGLPPFRAGNEYLIFQKIIKLEYDFPEKFFPKARDLVEKLLVLDATKRLGCEEMEGYGPLKAHPFFESVTWENLHQQTPPKLTAYLPAMSEDDEDCYGNYDNLLSQFGCMQVSSSSSSHSLSASDTGLPQRSGSNIEQYIHDLDSNSFELDLQFSEDEKRLLLEKQAGGNPWHQFVENNLILKMGPVDKRKGLFARRRQLLLTEGPHLYYVDPVNKVLKGEIPWSQELRPEAKNFKTFFVHTPNRTYYLMDPSGNAHKWCRKIQEVWRQRYQSHPDAAVQ
Work on B3 yielded a relative phosphorylation of the substrate by PDK1-L155E in vitro (PKB[S473D] with wild type PDK1 = 100), +PIFtide [2] of 35 relative, a relative phosphorylation of the substrate by PDK1-L155E in vitro (PKB[S473D] with wild type PDK1 = 100), no PIFtide [2] of 35 relative and a relative phosphorylation of the substrate by PDK1-L155E in vitro (PKB[S473D] with wild type PDK1 = 100), +PIFtide [4] of 162 relative. The relative phosphorylation of the substrate by PDK1-L155E in vitro (PKB[S473D] with wild type PDK1 = 100), no PIFtide [4] was 178 relative, the relative phosphorylation of the substrate by PDK1-L155E in vitro (PKB[S473D] with wild type PDK1 = 100), +PIFtide [5] was 2.4 relative and the relative phosphorylation of the substrate by PDK1-L155E in vitro (PKB[S473D] with wild type PDK1 = 100), no PIFtide [5] was 3.3 relative. It also gave a relative phosphorylation of the substrate by PDK1-L155E in vitro (PKB[S473D] with wild type PDK1 = 100), +PIFtide [6] of 3.4 relative, a relative phosphorylation of the substrate by PDK1-L155E in vitro (PKB[S473D] with wild type PDK1 = 100), no PIFtide [6] of 3.5 relative and a relative phosphorylation of the substrate by PDK1-L155E in vitro (PKB[S473D] with wild type PDK1 = 100), +PIFtide (GST-ΔPH-PKBα, P31749) of 0.25 relative. For the same protein, the relative phosphorylation of the substrate by PDK1-L155E in vitro (PKB[S473D] with wild type PDK1 = 100), no PIFtide (GST-ΔPH-PKBα, P31749) was 0.23 relative, the relative phosphorylation of the substrate by PDK1-L155E in vitro (PKB[S473D] with wild type PDK1 = 100), +PIFtide [7] was 0.15 relative and the relative phosphorylation of the substrate by PDK1-L155E in vitro (PKB[S473D] with wild type PDK1 = 100), no PIFtide [7] was 0.18 relative. The relative phosphorylation of the substrate by PDK1-L155E in vitro (PKB[S473D] with wild type PDK1 = 100), +PIFtide [8] was 0.108 relative, the relative phosphorylation of the substrate by PDK1-L155E in vitro (PKB[S473D] with wild type PDK1 = 100), no PIFtide [8] was 0.5 relative and the relative phosphorylation of the substrate by PDK1-L155E in vitro (PKB[S473D] with wild type PDK1 = 100), +PIFtide [9] was 0.27 relative. For the same protein, the relative phosphorylation of the substrate by PDK1-L155E in vitro (PKB[S473D] with wild type PDK1 = 100), no PIFtide [9] was 0.6 relative.
